Data as given in patent US20260104424A1, “METHODS, SYSTEMS AND KITS FOR IDENTIFYING BIOACTIVE COMPOUNDS AND THERAPEUTIC METHODS AND COMPOSITIONS” (priority 2022, published 2026).
Entries after “also recorded” stand apart in the source; their conditions may differ.

How the values were obtained:
CXCR2 = biological target: T1, CXCR2 (Homo sapiens, UniProt P25025); test: M13 phage binding and screening against HEK293T cells overexpressing CXCR2; settings: negative control protein on M13 phage
T1 sequence (P25025 1-360): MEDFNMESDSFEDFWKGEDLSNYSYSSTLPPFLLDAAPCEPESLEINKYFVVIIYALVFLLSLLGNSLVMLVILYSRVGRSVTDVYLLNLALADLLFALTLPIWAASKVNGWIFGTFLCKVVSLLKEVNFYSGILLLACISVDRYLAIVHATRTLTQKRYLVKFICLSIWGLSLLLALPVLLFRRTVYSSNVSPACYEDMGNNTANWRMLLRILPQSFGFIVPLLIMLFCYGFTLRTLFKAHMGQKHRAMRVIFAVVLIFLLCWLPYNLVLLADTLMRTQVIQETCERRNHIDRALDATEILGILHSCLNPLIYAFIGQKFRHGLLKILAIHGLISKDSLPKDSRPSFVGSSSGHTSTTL

EGFR = biological target: T2, EGFR (Homo sapiens, UniProt P00533); test: Single-round M13 phage library screening against EGFR (Ig-EGFR beads, HEK293T cells overexpressing EGFR); assay type: binding; settings: for identification as hit in screen against Ig-EGFR: AT, MV and secretome libraries, versus Isotype Ig, triplicate; for identification as hit in secretome library screen: beads coated with Ig-EGFR and HEK293T cells overexpressing EGFR
T2 construct: representing the extracellular domain of the target receptor fuse to the Fc region of immunoglobulin G; purchased R&D Systems 344-ER
Procedure: For the phage immunoprecipitation-based ligand discovery, 1 μg of EGFR-Fc (R&D Systems Cat No. 344-ER) and Etanercept (Mippipore Sigma Cat No. 185243-69-0) chimera proteins, representing the extracellular domain of the target receptor fuse to the Fc region of immunoglobulin G, was incubated with the pre-blocked phage library overnight at 4° C. The following day, 20 μL of protein G beads (ThermoFisher Cat No. 10009D) were added to the phage-chimera mixture and rotated for 4 hours at 4° C. to immunocapture (IP) all chimeras. The beads were then washed three times with PBS containing 0.01% NP-40 and stored in −80° C. before sequencing.

MrgprX4 = biological target: T3, MrgprX4 (Homo sapiens, UniProt Q96LA9); test: MrgprX4 calcium signaling assay; assay type: cell-based; design: activation of MrgprX4 (agonist activity): dose or concentration left out as unconfirmed
T3 construct: GFP; expressed in transfected cells; host or cells: HEK293-MrgprX4-GFP
Procedure: The HEK293-MrgprX4-GFP and HEK293 cell lines were dissociated with 0.25% Trypsin (Gibco, Cat No. 25200-056) and collected after 1-2 minutes incubation. The harvested cells were then seeded at a density of 2.5E+04 cells/well in a 96-well half-area flat clear bottom black plate (Greiner Bio-One, Cat No. 675090) that was pre-treated with 0.1 mg/ml poly-D-lysine. The following day, cells were stained with FLIPR Calcium 5 dye (Molecular Devices, Cat No. R8186) in a loading buffer composed of Hanks' balanced salt solution (HBSS) with 20 mM HEPES, adjusted to pH 7.4. After a 30-minute incubation period at 37° C., TFPI (Acro Biosystems Cat No. TFI-H5226) was introduced, and the cells were incubated for an additional hour at 37° C. Subsequently, UDCA or the buffer control were automatically dispensed into the wells, which were immediately imaged using the Flexstation 3 system (Molecular Devices).

T3 sequence (Q96LA9 whole entry): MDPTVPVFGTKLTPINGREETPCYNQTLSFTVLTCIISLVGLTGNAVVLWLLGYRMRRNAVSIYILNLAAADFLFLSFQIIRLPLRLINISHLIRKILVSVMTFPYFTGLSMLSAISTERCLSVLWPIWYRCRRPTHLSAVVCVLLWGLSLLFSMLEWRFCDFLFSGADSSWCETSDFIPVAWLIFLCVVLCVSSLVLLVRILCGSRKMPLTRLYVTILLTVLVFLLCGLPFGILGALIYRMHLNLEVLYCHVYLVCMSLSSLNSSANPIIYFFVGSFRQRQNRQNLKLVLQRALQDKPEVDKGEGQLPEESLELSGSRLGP

$-Lactoglobulin: negative control protein displayed on phage in the CXCR2 binding test
non-specific binding to HEK293T-CXCR2 cells (CXCR2): low non-specific binding

betacellulin [BTC]
identification as hit in screen against Ig-EGFR (EGFR): rediscovered; also recorded: identified
identification as hit in secretome library screen (EGFR): robustly identified

heparin binding EGF-like growth factor [HBEGF]
identification as hit in screen against Ig-EGFR (EGFR): rediscovered
identification as hit in screen against Ig-EGFR (EGFR; listed as HB-EGF): identified
identification as hit in secretome library screen (EGFR): robustly identified

osteoprotegerin [OPG, reference compound]
inhibitory activity on MrgprX4 (MrgprX4; negative control protein, 1 uM (n=4)): no obvious inhibitory activity

tissue factor pathway inhibitor [TFPI]
activation of MrgprX4 (agonist activity) (MrgprX4): does not activate
inhibition of activation by UDCA (MrgprX4; UDCA (EC80), TFPI at 1 and 0.3 uM, n=7): inhibiting the activation of UDCA
concentrations down to which UDCA-induced activation of MrgprX4 was effectively inhibited (MrgprX4; calcium-signaling assay): 0.3 µM
concentration at which MrgprX4 activation was inhibited (MrgprX4; in the presence of the MrgprX4 activator UDCA): 300 nM

transforming growth factor-A [TGFA]
identification as hit in screen against Ig-EGFR (EGFR): rediscovered
identification as hit in screen against Ig-EGFR (EGFR; listed as TGFa): identified
identification as hit in secretome library screen (EGFR): robustly identified
